Laboratory results published in patent EP3080145B1.

Assays:
[1] = molecular target: HFBI variant D40Q/D43N (Trichoderma reesei) (UniProt P52754); test: QCM-D, enzyme injected over adsorbed D40Q/D43N layer, pH series
[2] = molecular target: HFBI variant D40Q/D43N (Trichoderma reesei) (UniProt P52754); test: QCM-D, enzyme injected over adsorbed D40Q/D43N layer, around pH 5

UniProt P52754, sequence (P52754 23-97 D62Q/D65N, form in doubt): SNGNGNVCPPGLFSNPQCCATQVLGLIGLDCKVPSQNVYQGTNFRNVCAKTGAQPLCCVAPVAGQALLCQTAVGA

Molecule | adsorbed mass [1] [ng/cm^2] | maximum adsorption (adsorbed mass) [2] [ng/cm^2]
Trichoderma reesei xylanase II (from UniProt P36217 34-223) (enzyme) | 55 to 100 | –
Trichoderma reesei cellobiohydrolase I (enzyme, UniProt P62694 18-513, looked up) QSACTLQSETHPPLTWQKCSSGGTCTQQTGSVVIDANWRWTHATNSSTNCYDGNTWSSTLCPDNETCAKNCCLDGAAYASTYGVTTSGNSLSIGFVTQSAQKNVGARLYLMASDTTYQEFTLLGNEFSFDVDVSQLPCGLNGALYFVSMDADGGVSKYPTNTAGAKYGTGYCDSQCPRDLKFINGQANVEGWEPSSNNANTGIGGHGSCCSEMDIWEANSISEALTPHPCTTVGQEICEGDGCGGTYSDNRYGGTCDPDGCDWNPYRLGNTSFYGPGSSFTLDTTKKLTVVTQFETSGAINRYYVQNGVTFQQPNAELGSYSGNELNDDYCTAEEAEFGGSSFSDKGGLTQFKKATSGGMVLVMSLWDDYYANMLWLDSTYPTNETSSTPGAVRGSCSTSSGVPAQVESQSPNAKVTFSNIKFGPIGSTGNPSGGNPPGGNRGTTTTRRPATTTGSSPGPTQSHYGQCGGIGYSGPTVCASGTTCQVLNPYYSQCL | – | 600
